Blank lines part the entries; values can stand above or below the binder they belong to.
Biological target: T1, human blood coagulation factor IX (human, UniProt P00740 47-461, Gla (gamma-carboxyglutamate) residues in the GLA domain of native FIX); the twelve Glu of the GLA domain are at positions 53, 54, 61, 63, 66, 67, 72, 73, 76, 79, 82 and 86 of SEQ ID NO: 1 (positions …)
T1 construct: The FIX co-administered with the antibodies was Christmassin M I.V; antibody A was raised against human FIXa; also called FIX; human FIX
T1 sequence (P00740 47-461): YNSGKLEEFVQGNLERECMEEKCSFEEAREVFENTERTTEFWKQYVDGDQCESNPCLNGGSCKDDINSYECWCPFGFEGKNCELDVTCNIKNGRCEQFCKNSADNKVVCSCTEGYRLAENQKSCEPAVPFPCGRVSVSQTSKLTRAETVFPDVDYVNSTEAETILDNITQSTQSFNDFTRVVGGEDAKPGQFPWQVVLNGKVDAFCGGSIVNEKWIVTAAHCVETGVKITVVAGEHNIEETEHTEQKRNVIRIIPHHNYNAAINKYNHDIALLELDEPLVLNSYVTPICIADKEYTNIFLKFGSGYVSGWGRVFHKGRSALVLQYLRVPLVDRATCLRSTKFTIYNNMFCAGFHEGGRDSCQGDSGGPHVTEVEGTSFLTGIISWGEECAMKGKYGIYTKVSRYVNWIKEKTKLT
Experiment: not described (statement in Example 4)
Experimental: PK tests using mice were performed by the following method. Through the tail vein or under the dorsal skin of mice (C57BL/6J mouse, Charles River Japan), FIX (Christmassin M I.V.) was administered at a dose of 0.6 mg/kg by itself or simultaneously with 8 mg/kg of an anti-FIX antibody A or anti-FIX antibody B, in a single dose. Blood was collected five minutes, two hours, four hours, seven hours, one day, two days, seven days, 14 days, 21 days, and 28 days after the administration. The collected blood was immediately subjected to separation by centrifugation at 4° C. and 15,000 rpm for 15 minutes to obtain the plasma. The separated plasma was stored in a freezer set to −20° C. or lower until performing the measurements.
The concentration of FIX in mouse plasma was determined by ELISA. […] After stopping the reaction by adding a reaction-stopping solution (AssayPro), the 450-nm absorbance of the reaction solution in each well was measured using a microplate reader. The concentrations of FIX in mouse plasma were calculated from the absorbances of the calibration curve using SOFTmax PRO analysis software (Molecular Devices).

binding result: binds
B1: anti-FIX antibody B (antibody, human IgG1, kappa, V domains shown)
VH: QVQLVQSGSELKKPGASVKVSCKASGYTFTNYGMNWVRQAPGQGLKWMGWINTRNGKSTYVDDFKGRFVFSLDSSVSTAYLQISSLKADDTAVYYCTREGNMDGYFPFTYWGQGTLVTVSS
VL: QIVLTQSPSSLSASVGDRVTITCRASSSVNYMHWYQQKPGKAPKPWIYATSNLASGVPSRFSGSGSGTDYTFTISSLQPEDIATYYCQQWSINPRTFGQGTKVEIKR
notes: expressed transiently in FS293 cells

binding result: binds
B2: anti-FIX antibody A (antibody, human IgG1, kappa, V domains shown)
VH: QVQLQQSGAELAKPGASVKLSCKASGYTFTSSWMHWIKQRPGQGLEWLGYINPSSGYTKYNRKFRDKATLTADKSSSTAYMQLTSLTYEDSAVYYCARGGNGYYFDYWGQGTTLTVSS
VL: DIVMTQSHKFMSTSVGDRVSITCKASQDVGTAVAWYQQKPGQSPKLLIYWASTRHTGVPDRFTGSRYGTDFTLTISNVQSEDLADYLCQQYSNYITFGGGTKLELKR
notes: Obtained by immunizing an animal with human FIXa

Source: patent US20200109390A1 (Chugai, published 2020)
